The target in the test is T1, B-cell maturation antigen (BCMA) (human, UniProt Q02223 1-184).
T1 sequence (looked up): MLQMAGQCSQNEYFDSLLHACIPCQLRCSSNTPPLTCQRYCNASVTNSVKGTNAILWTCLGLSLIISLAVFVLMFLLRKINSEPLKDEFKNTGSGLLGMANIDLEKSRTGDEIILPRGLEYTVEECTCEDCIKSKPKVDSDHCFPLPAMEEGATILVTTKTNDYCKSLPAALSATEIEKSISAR
The experiment in a line: cell-based or functional assay.

This is an account of results in patent US20230192878A1 (published 2023).

B1: PF-06863135 (bispecific antibody, human IgG2)
heavy 1: EVQLVESGGGLVQPGGSLRLSCAASGFTFSDYYMTWVRQAPGKGLEWVAFIRNRARGYTSDHNPSVKGRFTISRDNAKNSLYLQMNSLRAEDTAVYYCARDRPSYYVLDYWGQGTTVTVSSASTKGPSVFPLAPCSRSTSESTAALGCLVKDYFPEPVTVSWNSGALTSGVHTFPAVLQSSGLYSLSSVVTVPSSNFGTQTYTCNVDHKPSNTKVDKTVERKCRVRCPRCPAPPVAGPSVFLFPPKPKDTLMISRTPEVTCVVVAVSHEDPEVQFNWYVDGVEVHNAKTKPREEQFNSTFRVVSVLTVVHQDWLNGKEYKCKVSNKGLPSSIEKTISKTKGQPREPQVYTLPPSREEMTKNQVSLTCLVKGFYPSDIAVEWESNGQPENNYKTTPPMLDSDGSFFLYSRLTVDKSRWQQGNVFSCSVMHEALHNHYTQKSLSLSPGK
light 1: not shown
heavy 2: EVQLLESGGGLVQPGGSLRLSCAASGFTFSSYPMSWVRQAPGKGLEWVSAIGGSGGSLPYADIVKGRFTISRDNSKNTLYLQMNSLRAEDTAVYYCARYWPMDIWGQGTLVTVSSASTKGPSVFPLAPCSRSTSESTAALGCLVKDYFPEPVTVSWNSGALTSGVHTFPAVLQSSGLYSLSSVVTVPSSNFGTQTYTCNVDHKPSNTKVDKTVERKCEVECPECPAPPVAGPSVFLFPPKPKDTLMISRTPEVTCVVVAVSHEDPEVQFNWYVDGVEVHNAKTKPREEQFNSTFRVVSVLTVVHQDWLNGKEYKCKVSNKGLPSSIEKTISKTKGQPREPQVYTLPPSREEMTKNQVSLTCEVKGFYPSDIAVEWESNGQPENNYKTTPPMLDSDGSFFLYSKLTVDKSRWQQGNVFSCSVMHEALHNHYTQKSLSLSPGK
light 2: EIVLTQSPGTLSLSPGERATLSCRASQSVSSSYLAWYQQKPGQAPRLLMYDASIRATGIPDRFSGSGSGTDFTLTISRLEPEDFAVYYCQQYQSWPLTFGQGTKVEIKRTVAAPSVFIFPPSDEQLKSGTASVVCLLNNFYPREAKVQWKVDNALQSGNSQESVTEQDSKDSTYSLSSTLTLSKADYEKHKVYACEVTHQGLSSPVTKSFNRGEC
As to B1, the “EC50 (nM) of cell viability, H929-Luc co-cultured with human CD3+ T cells, 72 hr, with GSI (nirogacestat)” value came out at 0.0055 nM; the “EC50 (nM) of cell viability, H929-Luc co-cultured with human CD3+ T cells, 72 hr, without GSI” value came out at 0.167 nM; the “EC50 (nM) of cell viability, Molp8-Luc co-cultured with human CD3+ T cells, 72 hr, with GSI (nirogacestat)” value amounted to 0.0202 nM; the “EC50 (nM) of cell viability, Molp8-Luc co-cultured with human CD3+ T cells, 72 hr, without GSI” value is 0.108 nM. Moreover, the “EC50 (nM) of cell viability, OPM2-Luc co-cultured with human CD3+ T cells, 72 hr, with GSI (nirogacestat)” value came out at 0.0033 nM; the “EC50 (nM) of cell viability, OPM2-Luc co-cultured with human CD3+ T cells, 72 hr, without GSI” value is 0.0528 nM; the “EC50 (nM) of cell viability, RPMI8226-Luc co-cultured with human CD3+ T cells, 72 hr, with GSI (nirogacestat)” value was found to be 0.0017 nM; the “EC50 (nM) of cell viability, RPMI8226-Luc co-cultured with human CD3+ T cells, 72 hr, without GSI” value is 0.0092 nM.
